One block for each binder: values may come before it.
Assays:
[1] = biological target: T1, GroEL^SR (GroEL R452A/E461A/S463A/V464A) (E. coli, UniProt P0A6F5 1-548, R452A | E461A | S463A | V464A); test: MST; cochaperonin labelled with DyLight 650, unlabelled GroEL or GroEL^SR titrated (serial dilution of 15 samples), 30 min incubation; 50 mM TrisCl pH 7.5, 100 mM KCl, 10 mM MgCl2, 1 mM EDTA, 2 mM ADP, 0.5 mg/mL BSA; Monolith NT115, 80% LED, 40% IR-laser; conditions: both partners purified
T1 construct: GroEL, E. coli, single-ring variant; groEL^SR in the pTrc vector; also called single-ring GroEL; source: dialysis against 30% methanol, FastQ column

[2] = biological target: T2, GroEL (E. coli, UniProt P0A6F5 1-548); test: MST; cochaperonin labelled with DyLight 650; unlabelled GroEL or GroEL^SR in a serial dilution of 15 samples; 50 mM TrisCl pH 7.5, 100 mM KCl, 10 mM MgCl2, 1 mM EDTA, 2 mM ADP, 0.5 mg/mL BSA; 30 min incubation; conditions: both partners purified
T2 construct: GroEL, E. coli, expressed from pTrc; two heptameric rings (tetradecamer); also called chaperonin; double-ring GroEL; source: E. coli BL21(DE3), purified (methanol dialysis, FastQ column); copies: 14

Kd [1]: 3.67 nM
B1: GroES (natural protein, E. coli, UniProt P0A6F9 1-97, looked up)
chain: MNIRPLHDRVIVKRKEVETKSAGGIVLTGSAAAKSTRGEVLAVGNGRILENGEVKPLDVKVGDIVIFNDGYGVKSEKIDNEEVLIMSESDILAIVEA
modifications: DyLight 650 NHS Ester amine reactive dye (labelled)
notes: GroES, E. coli; one heptameric ring; groES in pET3b; also called cochaperonin

Kd [2]: 3.83 ± 0.93 nM
B2: GroES (natural protein, E. coli, UniProt P0A6F9 1-97, looked up)
chain: B1 chain
modifications: DyLight 650 NHS ester on amines (for MST)
notes: GroES, E. coli, expressed from pET3b; heptamer; also called cochaperonin; wild type GroES
